Results reported in publication PMC6395711, “MdGSTF6, activated by MdMYB1, plays an essential role in anthocyanin accumulation in apple”.

Target: T1, MdMYB1 (Malus domestica? (apple), UniProt A0SQ37 1-243)
T1 sequence: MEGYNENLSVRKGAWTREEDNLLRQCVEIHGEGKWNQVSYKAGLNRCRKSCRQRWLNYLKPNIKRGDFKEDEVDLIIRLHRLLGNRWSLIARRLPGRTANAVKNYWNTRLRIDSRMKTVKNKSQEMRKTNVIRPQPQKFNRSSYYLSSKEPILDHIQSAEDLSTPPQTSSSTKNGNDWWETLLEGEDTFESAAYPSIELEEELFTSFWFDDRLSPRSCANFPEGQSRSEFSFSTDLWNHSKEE
Assay: EMSA; LightShift Chemiluminescent EMSA Kit (Thermo); buffer, salt, pH and temperature not stated
Details: protein: recombinant; tags: pET-32a fusion, His (Ni-agarose purified); blunt

B1: MdGSTF6-probe (dsDNA)
DNA 1: ATATCTAGTTGTAATCAACTGTTATGGCATAAATTG
DNA 2: CAATTTATGCCATAACAGTTGATTACAACTAGATAT
- binding result: binds
